B1: MmAlaAT1 (Mus musculus) (protein)
chain: ASQRNDRIQASRNGLKGKVLTLDTMNPCVRRVEYAVRGPIVQRALELEQELRQGVKKPFTEVIRANIGDAQAMGQRPITFFRQVLALCVYPNLLSSPDFPEDAKRRAERILQACGGHSLGAYSISSGIQPIREDVAQYIERRDGGIPADPNNIFLSTGASDAIVTMLKLLVAGEGRARTGVLIPIPQYPLYSAALAELDAVQVDYYLDEERAWALDIAELRRALCQARDRCCPRVLCVINPGNPTGQVQTRECIEAVIRFAFEEGLFLMADEVYQDNVYAEGSQFHSFKKVLTEMGPPYATQQELASFHSVSKGYMGECGFRGGYVEVVNMDAEVQKQMAKLMSVRLCPPVPGQALMGMVVSPPTPSEPSFKQFQAERQEVLAELAAKAKLTEQVFNEAPGIRCNPVQGAMYSFPQIQLPLKAVQRAQDLGLAPDMFFCLCLLEETGICVVPGSGFGQQEGTYHFRMTILPPMEKLRVLLEKLRHFHAKFTHEYS
notes: untagged, pBAD18-Kan, E. coli TR61, desalted whole-protein extract, not purified
B2: PfAlaAT (Pyrococcus furiosus DSM 3638) (protein)
chain: MIRASKRALSVEYAIRDVVLPARELEKKGIKVIRLNIGDPVKFDFQPPEHMKEAYCKAIKEGHNYYGDSEGLPELRKAIVEREKRKNGVDITPDDVRVTAAVTEALQLIFGALLDPGDEILVPGPSYPPYTGLVKFYGGKPVEYRTIEEEDWQPDIDDIRKKITDRTKAIAVINPNNPTGALYDKKTLEEILNIAGEYEIPVISDEIYDLMTYEGEHISPGSLTKDVPVIVMNGLSKVYFATGWRLGYMYFVDPENKLSEVREAIDRLARIRLCPNTPAQFAAIAGLTGPMDYLKEYMKKLKERRDYIYKRLNEIPGISTTKPQGAFYIFPKIEVGPWKNDKEFVLDVLHNAHVLFVHGSGFGEYGAGHFRAVFLPPIEILEEAMDRFEKFMKERLKE
notes: as for B1
B3: ScAlaAT1 (Saccharomyces cerevisiae S288C) (protein)
chain: SSSWIVAQNHRRSLSGQSSLNDLRHLNRFPHHTLKTSNNEFYPAEQLTLEDVNENVLKAKYAVRGAIPMRAEELKAQLEKDPQSLPFDRIINANIGNPQQLQQKPLTYYRQVLSLLQYPELLNQNEQQLVDSKLFKLDAIKRAKSLMEDIGGSVGAYSSSQGVEGIRKSVAEFITKRDEGEISYPEDIFLTAGASAAVNYLLSIFCRGPETGVLIPIPQYPLYTATLALNNSQALPYYLDENSGWSTNPEEIETVVKEAIQNEIKPTVLVVINPGNPTGAVLSPESIAQIFEVAAKYGTVVIADEVYQENIFPGTKFHSMKKILRHLQREHPGKFDNVQLASLHSTSKGVSGECGQRGGYMELTGFSHEMRQVILKLASISLCPVVTGQALVDLMVRPPVEGEESFESDQAERNSIHEKLITRAMTLYETFNSLEGIECQKPQGAMYLFPKIDLPFKAVQEARHLELTPDEFYCKKLLESTGICTVPGSGFGQEPGTYHLRTTFLAPGLEWIKKWESFHKEFFDQYRD
notes: as for B1
B4: AtAlaAT1 (Arabidopsis thaliana) (protein)
chain: SASDSSSSLPVTLDTINPKVIKCEYAVRGEIVNIAQKLQEDLKTNKDAYPFDEIIYCNIGNPQSLGQQPITFFREVLALCSYTALLDESATHGLFSSDSIERAWKILDQIPGRATGAYSHSQGIKGLRDAIADGIEARDGFPADPNDIFMTDGASPGVHMMMQLLITSEKDGILCPIPQYPLYSASIALHGGTLVPYYLDEASGWGLEISELKKQLEDARSKGITVRALAVINPGNPTGQVLSEENQRDVVKFCKQEGLVLLADEVYQENVYVPDKKFHSFKKVARSMGYGEKDLALVSFQSVSKGYYGECGKRGGYMEVTGFTSDVREQIYKMASVNLCSNISGQILASLIMSPPKPGDDSYESYIAEKDGILSSLARRAKTLEEALNKLEGVTCNRAEGAMYLFPCLHLPQKAIAAAEAEKTAPDNFYCKRLLKATGIVVVPGSGFRQVPGTWHFRCTILPQEDKIPAIVDRLTAFHQSFMDEFRD
notes: as for B1
B5: AtAlaAT2 (Arabidopsis thaliana) (protein)
chain: SSTSEMSASDSTSSLPVTLDSINPKVLKCEYAVRGEIVNIAQKLQEDLKTNKDAYPFDEIIYCNIGNPQSLGQLPIKFFREVLALCDHASLLDESETHGLFSTDSIDRAWRILDHIPGRATGAYSHSQGIKGLRDVIAAGIEARDGFPADPNDIFLTDGASPAVHMMMQLLLSSEKDGILSPIPQYPLYSASIALHGGSLVPYYLDEATGWGLEISDLKKQLEEARSKGISVRALVVINPGNPTGQVLAEENQRDIVNFCKQEGLVLLADEVYQENVYVPDKKFHSFKKVARSLGYGEKDISLVSFQSVSKGYYGECGKRGGYMEVTGFTSDVREQIYKMASVNLCSNISGQILASLVMSPPKPGDDSYDSYMAERDGILSSMAKRAKTLEDALNSLEGVTCNRAEGAMYLFPRINLPQKAIEAAEAEKTAPDAFYCKRLLNATGVVVVPGSGFGQVPGTWHFRCTILPQEDKIPAIVNRLTEFHKSFMDEFRN
notes: as for B1
B6: AtGGAT1 (Arabidopsis thaliana) (protein)
chain: MALKALDYDTLNENVKKCQYAVRGELYLRASELQKEGKKIIFTNVGNPHALGQKPLTFPRQVVALCQAPFLLDDPNVGMLFPADAIARAKHYLSLTSGGLGAYSDSRGLPGVRKEVAEFIQRRDGYPSDPELIFLTDGASKGVMQILNCVIRGNGDGILVPVPQYPLYSATISLLGGTLVPYYLDESENWGLDVANLRQSVAQARSQGITVRAMVIINPGNPTGQCLSEANIREILKFCYNEKLVLLGDEVYQQNIYQDERPFISSKKVLMEMGSPFSKEVQLVSFHTVSKGYWGECGQRGGYFEMTNLPPRVVEEIYKVASIALSPNVSAQIFMGLMVNPPKPGDISYDQFARESKGILESLRRRARLMTDGFNSCKNVVCNFTEGAMYSFPQIRLPTGALQAAKQAGKVPDVFYCLKLLEATGISTVPGSGFGQKEGVFHLRTTILPAEDEMPEIMDSFKKFNDEFMTQYDNNFGYSKM
notes: as for B1
B7: AtGGAT2 (Arabidopsis thaliana) (protein)
chain: MSLKALDYESLNENVKNCQYAVRGELYLRASELQKEGKKIIFTNVGNPHALGQKPLTFPRQVVSLCQAPFLLDDPNVGMIFPADAIARAKHYLSLTSGGLGAYSDSRGLPGVRKEVAEFIERRDGYPSDPELIFLTDGASKGVMQILNCVIRGQKDGILVPVPQYPLYSATISLLGGTLVPYYLEESENWGLDVNNLRQSVAQARSQGITVRAMVIINPGNPTGQCLSEANIREILRFCCDERLVLLGDEVYQQNIYQDERPFISSKKVLMDMGAPISKEVQLISFHTVSKGYWGECGQRGGYFEMTNIPPRTVEEIYKVASIALSPNVSAQIFMGLMVSPPKPGDISYDQFVRESKGILESLRRRARMMTDGFNSCKNVVCNFTEGAMYSFPQIKLPSKAIQAAKQAGKVPDVFYCLKLLEATGISTVPGSGFGQKEGVFHLRTTILPAEEEMPEIMDSFKKFNDEFMSQYADNFGYSRM
notes: as for B1
B8: HvAlaAT (Hordeum vulgare) (protein)
chain: MAATVAVDNLNPKVLKCEYAVRGEIVIHAQRLQEQLKTQPGSLPFDEILYCNIGNPQSLGQQPVTFFREVLALCDHPDLLQREEIKTLFSADSISRAKQILAMIPGRATGAYSHSQGIKGLRDAIASGIASRDGFPANADDIFLTDGASPGVHLMMQLLIRNEKDGILVPIPQYPLYSASIALHGGALVPYYLNESTGWGLETSDVKKQLEDARSRGINVRALVVINPGNPTGQVLAEENQYDIVKFCKNEGLVLLADEVYQENIYVDNKKFHSFKKIVRSLGYGEEDLPLVSYQSVSKGYYGECGKRGGYFEITGFSAPVREQIYKIASVNLCSNITGQILASLVMNPPKASDESYASYKAEKDGILASLARRAKALEHAFNKLEGITCNEAEGAMYVFPQICLPQKAIEAAKAANKAPDAFYALRLLESTGIVVVPGSGFGQVPGTWHFRCTILPQEDKIPAVISRFTVFHEAFMSEYRD
notes: untagged, from cDNA, pBAD18-Kan, E. coli TR61, desalted whole-protein extract, not purified

Columns and labels:
Experiment in all cases: cells, lysate or membranes
[1] = substrate: O=C(O)CCC(=O)C(=O)O; format: biochemical, Mus musculus; details: 100 mM alanine, 0.1 M Tris-HCl pH 8.0, 20°C, 10 µM PLP, unpurified extract
[2] = substrate: N[C@@H](CCC(=O)O)C(=O)O; format: biochemical, Mus musculus; details: 10 mM pyruvate, 100 mM NH4Cl, 0.1 M Tris-HCl pH 8.0, 20°C, 10 µM PLP, unpurified extract
[3] = substrate: O=C(O)CCC(=O)C(=O)O; format: biochemical, Pyrococcus furiosus; details: 100 mM alanine, 0.1 M Tris-HCl pH 8.0, 20°C, 10 µM PLP, unpurified extract
[4] = substrate: N[C@@H](CCC(=O)O)C(=O)O; format: biochemical, Pyrococcus furiosus; details: 10 mM pyruvate, 100 mM NH4Cl, 0.1 M Tris-HCl pH 8.0, 20°C, 10 µM PLP, unpurified extract
[5] = substrate: C[C@H](N)C(=O)O; details: 10 mM 2-oxoglutarate, 0.1 M Tris-HCl pH 8.0, 20°C, 10 µM PLP, unpurified extract
[6] = substrate: O=C(O)CCC(=O)C(=O)O; format: biochemical, Saccharomyces cerevisiae; details: 100 mM alanine, 0.1 M Tris-HCl pH 8.0, 20°C, 10 µM PLP, unpurified extract
[7] = substrate: O=C(O)CCC(=O)C(=O)O; format: biochemical, Arabidopsis thaliana; details: 100 mM alanine, 0.1 M Tris-HCl pH 8.0, 20°C, 10 µM PLP, unpurified extract
[8] = substrate: CC(=O)C(=O)O; format: biochemical, Arabidopsis thaliana; details: 50 mM glutamate, 100 mM NH4Cl, 0.1 M Tris-HCl pH 8.0, 20°C, 10 µM PLP, unpurified extract
[9] = substrate: N[C@@H](CCC(=O)O)C(=O)O; format: biochemical, Arabidopsis thaliana; details: 10 mM pyruvate, 100 mM NH4Cl, 0.1 M Tris-HCl pH 8.0, 20°C, 10 µM PLP, unpurified extract
[10] = substrate: O=C(O)CCC(=O)C(=O)O; format: biochemical, Hordeum vulgare; details: 100 mM alanine, 0.1 M Tris-HCl pH 8.0, 20°C, 10 µM PLP, unpurified extract
[11] = substrate: CC(=O)C(=O)O; format: biochemical, Hordeum vulgare; details: 50 mM glutamate, 100 mM NH4Cl, 0.1 M Tris-HCl pH 8.0, 20°C, 10 µM PLP, unpurified extract

Protein	Km [5] [µM]	Km [7] [µM]	Km [8] [µM]	other results
B1	–	–	–	Km [1]: 100 ± 100 µM; Km [2]: 13000 ± 2400 µM
B2	–	–	–	Km [3]: 20 ± 0 µM; Km [4]: 900 ± 100 µM
B3	300 ± 100	–	–	Km [6]: 500 ± 100 µM
B4	2400 ± 500	100 ± 0	100 ± 0	–
B5	–	1000 ± 100	5100 ± 900	Km [9]: 4900 ± 1100 µM
B6	1900 ± 500	200 ± 100	600 ± 100	–
B7	1200 ± 100	8800 ± 1800	18500 ± 2700	–
B8	–	–	–	Km [10]: 200 ± 0 µM; Km [11]: 100 ± 0 µM
